Assay results reported in publication doi:10.1101/2021.10.11.463889.

Target: GST-tagged proline-rich domain (PRD) of Dyn2 (human)
Assay: pull-down

Sequence of GST-tagged proline-rich domain (PRD) of Dyn2 (human) (P50570 whole entry, the tested form may be a part): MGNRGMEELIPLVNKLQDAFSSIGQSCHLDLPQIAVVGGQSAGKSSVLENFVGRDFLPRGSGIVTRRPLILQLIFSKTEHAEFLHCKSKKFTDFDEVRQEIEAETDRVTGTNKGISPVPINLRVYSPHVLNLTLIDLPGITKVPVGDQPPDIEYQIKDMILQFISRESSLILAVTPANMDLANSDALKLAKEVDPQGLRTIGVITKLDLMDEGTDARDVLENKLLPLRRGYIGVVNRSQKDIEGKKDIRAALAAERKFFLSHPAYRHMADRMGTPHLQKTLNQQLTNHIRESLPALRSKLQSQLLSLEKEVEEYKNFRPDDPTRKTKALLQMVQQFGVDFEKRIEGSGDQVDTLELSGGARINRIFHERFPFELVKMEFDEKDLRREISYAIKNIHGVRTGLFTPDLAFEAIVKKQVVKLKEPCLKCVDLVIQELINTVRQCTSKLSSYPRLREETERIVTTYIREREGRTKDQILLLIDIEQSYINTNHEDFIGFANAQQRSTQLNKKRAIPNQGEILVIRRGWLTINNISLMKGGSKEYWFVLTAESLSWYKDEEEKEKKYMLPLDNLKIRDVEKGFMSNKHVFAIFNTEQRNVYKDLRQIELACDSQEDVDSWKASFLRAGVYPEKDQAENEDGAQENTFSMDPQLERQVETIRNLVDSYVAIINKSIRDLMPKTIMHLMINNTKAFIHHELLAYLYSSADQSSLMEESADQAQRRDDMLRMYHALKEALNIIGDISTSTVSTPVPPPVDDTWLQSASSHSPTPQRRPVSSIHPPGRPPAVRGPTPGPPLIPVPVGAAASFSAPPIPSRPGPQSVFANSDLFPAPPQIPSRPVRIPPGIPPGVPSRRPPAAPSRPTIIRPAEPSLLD

Substance | Kd [nM]
His-tagged human Bin1 isoform 8, CNM-associated mutant K436X (domain or fragment) | 267
His-tagged human Bin1 isoform 8, wild type (natural protein) | 180
